According to article doi:10.1101/2024.12.01.621710 (bioRxiv, 2024):
Values joined by “and” are separate entries in the source; they are usually repeats but may differ in a detail not shown here. Equal entries are not always repeated. Where two headings read alike, the source gives them in different places.

Tests used:
[1] = target: MBP-IPAM C-ter (Chlamydia trachomatis serovar L2 (LGV 434/Bu)); test: SEC + other: mass photometry
[2] = target: MBP-IncA C-ter (Chlamydia trachomatis serovar L2 (LGV 434/Bu)); test: SEC + other: mass photometry
[3] = target: MBP-InaC C-ter (Chlamydia trachomatis serovar L2 (LGV 434/Bu)); test: SEC + other: mass photometry
[4] = target: the molecule itself; test: SEC + other: mass photometry
[5] = target: the molecule itself

## MBP-IPAM C-ter (domain or fragment)
[1]
  stoichiometry N: 2 and 3

## MBP-IncA C-ter (domain or fragment)
[2]
  stoichiometry N: 4

## MBP-InaC C-ter (domain or fragment)
[3]
  stoichiometry N: 2 and 3

B1: MBP-CpoS C-ter (domain or fragment)
chain: ARARSRRVEIERQLEVVSMQIEELEEEYKALSEVYRANLEARRAVSKYCQELEEKILDLCKRHAATICSIEEDAKQEIRHQTERFKQRLQQNQNTCSQLTAELCKLRSENKALSERLQVQASRRKK
[4]
  stoichiometry N: 4 and 8
[5]
  stoichiometry N: 2
